# Data taken from patent US8765721B2, “Composition comprising phosphatidyl serine and an antigen or allergen and the use thereof” (Vaccine Technology Limited, priority 2004, dated 2014).
# B1: ovalbumin (protein, UniProt P01012 2-386, looked up)
# Ovalbumin: GSIGAASMEFCFDVFKELKVHHANENIFYCPIAIMSALAMVYLGAKDSTRTQINKVVRFDKLPGFGDSIEAQCGTSVNVHSSLRDILNQITKPNDVYSFSLASRLYAEERYPILPEYLQCVKELYRGGLEPINFQTAADQARELINSWVESQTNGIIRNVLQPSSVDSQTAMVLVNAIVFKGLWEKAFKDEDTQAMPFRVTEQESKPVQMMYQIGLFRVASMASEKMKILELPFASGTMSMLVLLPDEVSGLEQLESIINFEKLTEWTSSNVMEERKIKVYLPRMKMEEKYNLTSVLMAMGITDVFSSSANLSGISSAESLKISQAVHAAHAEINEAGREVVGSAEAGVDAASVSEEFRADHPFLFCIKHIATNAVLFFGRCVSP
# notes: Group 2: ovalbumin antigen, 20 μg on days 21 and 42 without phosphatidyl serine, after Ova + Alh on day 0
# Experiments:
# Format in all cases: in vivo, rat
# Conditions in all cases: no phosphatidyl serine, pooled group serum
# IgA = assay: Ovalbumin-specific IgA ELISA of serum of immunised rats
# Method: (§1) Rats were injected with vaccine compositions comprising the ovalbumin antigen with and without di-oleoyl phosphatidyl serine, lyso-oleoyl phosphatidyl serine or stearoyl(X1)-arachidonoyl(X2) phosphatidyl serine and the concentrations of IgE, IgA and IgG are compared.
# (§2) The animals were acclimatised for a period of 5 days prior to dosing. During the acclimatisation period animals were observed twice daily during the working week and once on each day during the weekend to evaluate the health status of the animals. Rats were then allocated to the following dose groups using computer-generated random order numbers.
# (§3) On day 0, 20 μg of ovalbumin (OA) in phosphate buffered saline (PBS) with alhydrogel (AHG) adjuvant in a final volume of 0.5 mL was administered.
# (§4) On days 21 and 42, 20 μg of ovalbumin (OA) in phosphate buffered saline (PBS) with the relevant test compound in a final volume of 0.5 ml was administered.
# (§5) In each case, 0.5 mL of inoculum was injected subcutaneously into the scruff of the neck.
# On Day 0 a pre-inoculation blood sample was taken. A blood sample was also taken from each animal on Days 15, 22, 29, 36, 43, 50, 57 and 64.
# (§6) Serum was prepared by centrifugation of the blood sample at 2,500 rpm for 10 minutes and frozen at −20° C. The samples were then analysed by ELISA to establish the concentration of IgE, IgA and IgG1, IgG2a and IgG2b.
# (§7) The purpose of an ELISA is to determine whether a particular protein is present in a sample and then enables quantification of how much is present. By coating the bottom of wells with ovalbumin (OVA) it is possible to bind anti-OVA specific antibodies. To detect only anti-OVA IgA antibodies anti-rat IgA conjugated to HRP was used as a secondary antibody. Quantification of specific antibodies in the rat sera samples was performed using antibody titrations. The data was reported as endpoint titers. Endpoint titers are defined as the last serum dilution giving an optical density value equal to twice the background optical density for the ELISA plate (buffer).
# IgG2b = assay: Ovalbumin-specific IgG2b ELISA of serum of immunised rats
# Method: as §1, §2, §3, §4, §5
# (§8) […] A blood sample was also taken from each animal on Days 15, 22, 29, 36, 43, 50, 57 and 64.
# as §6, §7
# IgG2a = assay: Ovalbumin-specific IgG2a ELISA of serum of immunised rats
# Method: as §1, §2, §3, §4
# (§9) In each case, 0.5 mL of inoculum was injected subcutaneously into the scruff of the neck. […]
# as §6, §7
# IgG1 = assay: Ovalbumin-specific IgG1 ELISA of serum of immunised rats
# Method: as §1, §2, §3, §4, §9, §6
# The purpose of an ELISA is to determine whether a particular protein is present in a sample and then enables quantification of how much is present. By coating the bottom of wells with ovalbumin (OVA) it is possible to bind anti-OVA specific antibodies. […] Quantification of specific antibodies in the rat sera samples was performed using antibody titrations. The data was reported as endpoint titers. Endpoint titers are defined as the last serum dilution giving an optical density value equal to twice the background optical density for the ELISA plate (buffer).
# IgE = assay: Ovalbumin-specific IgE ELISA of serum of immunised rats
# Method: as §1, §2, §3, §4, §5, §8, §6, §7
molecule,measurement,setting,value
B1,IgA endpoint titer,IgA; Day 1,0
same,IgA endpoint titer,IgA; Day 15,0
same,IgA endpoint titer,IgA; Day 22,0
same,IgA endpoint titer,IgA; Day 29,80
same,IgA endpoint titer,IgA; Day 36,320
same,IgA endpoint titer,IgA; Day 43,320
same,IgA endpoint titer,IgA; Day 50,640
same,IgA endpoint titer,IgA; Day 57,1280
same,IgA endpoint titer,IgA; Day 64,640
same,IgG2b endpoint titer,IgG2b; Day 1,0
same,IgG2b endpoint titer,IgG2b; Day 15,1280
same,IgG2b endpoint titer,IgG2b; Day 22,640
same,IgG2b endpoint titer,IgG2b; Day 29,640
same,IgG2b endpoint titer,IgG2b; Day 36,640
same,IgG2b endpoint titer,IgG2b; Day 43,640
same,IgG2b endpoint titer,IgG2b; Day 50,640
same,IgG2b endpoint titer,IgG2b; Day 57,5120
same,IgG2b endpoint titer,IgG2b; Day 64,5120
same,IgG2a endpoint titer,IgG2a; Day 1,0
same,IgG2a endpoint titer,IgG2a; Day 15,640
same,IgG2a endpoint titer,IgG2a; Day 22,1280
same,IgG2a endpoint titer,IgG2a; Day 29,1280
same,IgG2a endpoint titer,IgG2a; Day 36,2560
same,IgG2a endpoint titer,IgG2a; Day 43,5120
same,IgG2a endpoint titer,IgG2a; Day 50,20480
same,IgG2a endpoint titer,IgG2a; Day 57,20480
same,IgG2a endpoint titer,IgG2a; Day 64,10240
same,IgG1 endpoint titer,IgG1; Day 1,0
same,IgG1 endpoint titer,IgG1; Day 15,320
same,IgG1 endpoint titer,IgG1; Day 22,2560
same,IgG1 endpoint titer,IgG1; Day 29,10240
same,IgG1 endpoint titer,IgG1; Day 36,20480
same,IgG1 endpoint titer,IgG1; Day 43,10240
same,IgG1 endpoint titer,IgG1; Day 50,10240
same,IgG1 endpoint titer,IgG1; Day 57,10240
same,IgG1 endpoint titer,IgG1; Day 64,20480
same,IgE endpoint titer,IgE; Day 1,0
same,IgE endpoint titer,IgE; Day 15,0
same,IgE endpoint titer,IgE; Day 22,0
same,IgE endpoint titer,IgE; Day 29,0
same,IgE endpoint titer,IgE; Day 36,20
same,IgE endpoint titer,IgE; Day 43,20
same,IgE endpoint titer,IgE; Day 50,640
same,IgE endpoint titer,IgE; Day 57,80
same,IgE endpoint titer,IgE; Day 64,40
